Consider eight molecules from paper PMC3222648, “Inotropic Action of the Puberty Hormone Kisspeptin in Rat, Mouse and Human: Cardiovascular Distribution and Characteristics of the Kisspeptin Receptor” (PLoS ONE, 2011).

Several values for one entry are separate records, joined by “and”; a condition that tells them apart may be missing. Identical values can stand only once. Bridges are numbered along the chain shown (N, C = ends). Where no end group is shown, it is not given here.

Assay [1] concerns the target T1, kisspeptin receptor (Rattus norvegicus, UniProt Q924U1). Description: Inotropic activity in rat paced paired atria. The conditions noted are these: read-out: EMAX (maximum positive inotropic response). The arrangement: Paired rat or mouse atria; from tissue; host or cells: rat paired atria. The procedure:
(§1) Paired rat or mouse atria, or 4 mm strips of human atrial appendage, were mounted in 10 ml organ baths containing oxygenated Krebs solution at 37°C as described previously. […] Experiments were terminated by the addition of 6.7 mM CaCl2 (final bath concentration 8.95 mM) and responses expressed as a % of this CaCl2 maximum. Radioligand binding study data were analyzed using the iterative, non-linear curve fitting programs EBDA and LIGAND in the KELL package (Biosoft, Cambridge, UK). Pooled KD, BMAX and Hill slopes (nH) were expressed as mean±SEM and normalized to protein concentrations. […] Where appropriate, values were compared by one-way analysis of variance (ANOVA). In all cases P<0.05 was considered statistically significant and n-values were the number of animals or patients from which data were obtained.

For assay [2], the target named is T2, kisspeptin receptor (Homo sapiens, UniProt Q969F8).
T2 construct: cryostat-cut sections of human (15 µm) or rat (10 µm) heart; from tissue; host or cells: human right atria (control, dilated cardiomyopathy, ischaemic heart disease), cryostat sections
T2 sequence (Q969F8 whole entry): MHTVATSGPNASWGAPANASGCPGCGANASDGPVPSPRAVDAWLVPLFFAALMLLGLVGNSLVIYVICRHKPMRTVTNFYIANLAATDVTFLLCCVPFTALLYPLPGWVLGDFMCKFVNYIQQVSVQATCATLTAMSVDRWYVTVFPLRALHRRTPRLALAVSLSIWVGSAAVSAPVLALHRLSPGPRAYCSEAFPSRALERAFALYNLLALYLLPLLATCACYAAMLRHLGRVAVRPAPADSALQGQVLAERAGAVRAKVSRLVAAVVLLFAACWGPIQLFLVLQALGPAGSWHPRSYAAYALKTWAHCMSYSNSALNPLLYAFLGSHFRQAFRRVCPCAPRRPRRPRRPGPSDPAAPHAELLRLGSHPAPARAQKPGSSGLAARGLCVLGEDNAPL
Description: Inotropic activity in human paced atrial strips. The procedure: as §1

Assay [3] has as its system endothelium-denuded rat aortic rings. In words: Vasoconstrictor activity in endothelium-denuded rat aorta. The conditions noted are these: mean ± SEM, ET-1 n = 7, KP-10 tissues from 4 animals, KP-54 tissues from 3 animals. The protocol:
Rat thoracic aorta was cleaned of connective tissue and cut into 4 mm rings and the endothelial layer removed by gentle rubbing. Tissues were set to a basal tension at which the maximum response to 100 mM KCl was generated and subsequent responses to kisspeptins were expressed as % of this KCl response. Aortic rings were then contracted with 10 µM phenylephrine and 1 µM ACh was added; a reduction in the phenylephrine response of <10% was taken as evidence of removal of endothelium. […] Experiments were terminated by the addition of 100 mM KCl and agonist responses were expressed as a % of this KCl maximum.
Radioligand binding study data were analyzed using the iterative, non-linear curve fitting programs EBDA and LIGAND in the KELL package (Biosoft, Cambridge, UK). Pooled KD, BMAX and Hill slopes (nH) were expressed as mean±SEM and normalized to protein concentrations. In vitro pharmacology data agonist responses were expressed as %CaCl2 response in the paced atrial tissues and %KCl in the vasoconstrictor studies and data were fitted to a four parameter logistic equation using an iterative curve-fitting program (FigSys, Biosoft, Cambridge, UK) to obtain values for potency (pD2: the negative logarithm to the base 10 of the EC50) and maximum response (EMAX: %CaCl2 or %KCl, respectively) expressed as mean±SEM. Where appropriate, values were compared by one-way analysis of variance (ANOVA). In all cases P<0.05 was considered statistically significant and n-values were the number of animals or patients from which data were obtained.

In assay [4] the test system is kisspeptin receptor. The conditions noted are these: ref [3]; cited from earlier work. The text has this:
Kisspeptin, or KP-54, is a member of a larger group of peptides, the RF amides, named after their shared C-terminal amino acids. RF amides have wide ranging roles in reproduction, feeding, blood pressure regulation and pain modulation with kisspeptins most closely implicated in reproduction and energy balance, [23]–[27]. KP-54 is cleaved from a single precursor, encoded by the KISS1 gene, and smaller fragments of kisspeptin have been identified that are cleaved from KP-54 by unidentified proteases.

In assay [5] the target is T2, kisspeptin receptor. In words: [^125I]KP-14 receptor autoradiography, human cardiovascular tissue sections. The format is binding. The conditions noted are these: for [^125I]KP-14 specific binding: 0.2 nM [^125I]KP-14, 2 h, mean ± SEM. The procedure:
(§2) For receptor autoradiography, cryostat-cut sections of human (15 µm) or rat (10 µm) heart were pre-incubated with phosphate binding buffer (mM: NaH2PO4, 50; NaCl, 100; EDTA, 5; MgCl2, 5; protease inhibitor cocktail, 1; pH 7.4) before incubation for 2 h with 0.2 nM [^125I]KP-14 [31]. […] Equilibrium was broken by washing in 50 mM Tris-HCl buffer, pH 7.4, 4°C before air-drying and apposition to radiation-sensitive film (Kodak Biomax MR) and determination of specific binding by computer-assisted densitometry using the Quantimet 970 system (Leica Microsystems, Bucks, UK).

The target in assay [6] is T1, kisspeptin receptor. In words: [^125I]KP-14 saturation binding, rat heart sections. The procedure:
(§3) [^125I]KP-14 binding was detected using a gamma counter to measure disintegrations per minute (dpm) and total protein content was calculated using the Biorad 96-well microtiter plate system. Radioligand binding study data were analyzed using the iterative, non-linear curve fitting programs EBDA and LIGAND in the KELL package (Biosoft, Cambridge, UK). Pooled KD, BMAX and Hill slopes (nH) were expressed as mean±SEM and normalized to protein concentrations. […] Where appropriate, values were compared by one-way analysis of variance (ANOVA). In all cases P<0.05 was considered statistically significant and n-values were the number of animals or patients from which data were obtained.

Assay [7] concerns the target T2, kisspeptin receptor. In words: [^125I]KP-14 saturation binding, human right atria sections. The conditions noted are these: for BMAX (receptor density) / nH (Hill coefficient): mean ± SEM, n = 3. The procedure: as §3
For assay [8], the target named is T1, kisspeptin receptor. Description: [^125I]KP-14 receptor autoradiography, rat cardiovascular tissue sections. It is filed as binding. To be noted: for [^125I]KP-14 specific binding: 0.2 nM [^125I]KP-14, 2 h, pH 7.4, non-specific: 1 µM KP-10, mean ± SEM. The protocol:
as §2

The conditions of assay [9]: ref [43]; cited from earlier work. The text has this:
Our discovery that kisspeptins are positive inotropic agents in human and rodent heart is the first report of such activity. […] Activation of these signaling pathways would be consistent with function as both an inotropic a ...

Assay [10] concerns human heart. To be noted: ref [39]; cited from earlier work. An excerpt: The RF-amide peptide family, which also includes prolactin releasing peptide, are known to have roles in cardiovascular regulation, both centrally and peripherally, [35]. However, to date mRNA studies of kisspeptin receptor distribution in whole heart samples have reported low but varying mRNA expression by northern blot, expression was not detected by PCR [3], [4], [32] except by Sawyer and colleagues, who were also able to detect mRNA encoding murine kisspeptin, albeit at very low copy number. We now report for the first time, the expression of kisspeptin a ...

For assay [11], the target named is T3, KP-14 (Homo sapiens, UniProt Q15726, ends and bridges not checked; also: 125I-labelled).
T3 chain: DLPNYNWNSFGLRF
In words: saturation radioligand binding, heart sections.

Setting [12] is: human right atria, dilated cardiomyopathy (DCM).
Setting [13] is: human right atria, ischaemic heart disease (IHD).

In general, Emax refers to the maximal effect, on the per cent scale that the assay sets. Usually EC50 stands for the concentration at which the effect is half-maximal. Lower therefore signals greater potency. For the molecule `CC(C)C[C@H](NC(=O)CNC(=O)[C@H](Cc1ccccc1)NC(=O)[C@H](CO)NC(=O)[C@H](CC(N)=O)NC(=O)[C@H](Cc1c[nH]c2ccccc12)NC(=O)[C@H](CC(N)=O)NC(=O)[C@@H](N)Cc1ccc(O)cc1)C(=O)N[C@@H](CCCNC(=N)N)C(=O)N[C@@H](Cc1ccccc1)C(N)=O` [KP-10], the Emax was determined as 31 ± 5% in [1] and 59 ± 10% in [2] (% of CaCl2 maximum (8.95 mM final), human atrial strips, mean ± SEM, n = 5, read-out: EMAX (maximum positive inotropic response)). The molecule further had an EC50 in [2] of 0.102 nM.
As to “ET-1: ET-1 (human) from Peptide Institute, control vasoconstrictor (CSCSSLMDKECVYFCHLDIIW; disulfide 1-15, 3-11; ends not checked; UniProt P05305 53-73, looked up)”, the “EMAX (maximum vasoconstrictor response)” value in assay [3] (% of 100 mM KCl maximum, endothelium-denuded rat aorta) turned out to be 99±1 % KCl. The “pD2 (vasoconstriction)” value in assay [3] (endothelium-denuded rat thoracic aortic rings, KP-10, KP-54 10^−12–3×10^−9 M, ET-1 10^−10–3×10^−7 M) came out at 8.13±0.11.
As to “KP-13: smaller fragment of kisspeptin cleaved from KP-54 (LPNYNWNSFGLRF; ends and bridges not checked; UniProt Q15726 109-121, looked up)”, in assay [4], the “biological activity of fragment” value was “retain biological activity”.
“KP-14: smaller fragment of kisspeptin cleaved from KP-54; custom synthesised by Severn Biotech (DLPNYNWNSFGLRF-NH2; ends and bridges not checked; UniProt Q15726 108-121, looked up)”: the “biological activity of fragment” value in [4] was “retain biological activity”.
Regarding “[^125I]KP-14: radioligand (2000 Ci/mmol) prepared from unlabelled KP-14 by direct iodination using the chloramine-T method (DLPNYNWNSFGLRF; not fully specified; ends and bridges not checked; also: 125I radiolabel, site not given here; UniProt Q15726 108-121, looked up)”, the “[^125I]KP-14 specific binding” value came out at 214±46 amol mm^−2 in [5] (human aorta, pH 7.4, n = 6); 27±6 amol mm^−2 in assay [5] (human apex, pH 7.4, n = 4); 51±15 amol mm^−2 in assay [5] (human atrial appendage, pH 7.4, n = 4); 29±10 amol mm^−2 in assay [5] (human interventricular septum, pH 7.4, n = 3); 59±16 amol mm^−2 in assay [5] (human left atria, phosphate binding buffer pH 7.4, non-specific: 10 µM KP-14, n = 3); 34±8 amol mm^−2 in assay [5] (human left ventricle, pH 7.4, n = 3). Also, the “[^125I]KP-14 specific binding” value in [5] (human right atria, pH 7.4, n = 3) was 36±7 amol mm^−2; in [5] (human right ventricle, pH 7.4, n = 3), 31±7 amol mm^−2; in [5] (human small resistance vessel, pH 7.4, n = 5), 4±3 amol mm^−2; in assay [8] (rat aorta, n = 3), 21±2 amol mm^−2; in assay [8] (rat heart, n = 5), 29±10 amol mm^−2. The “specific binding of [^125I]KP-14 (in words)” value in assay [5] (human myocardium, all regions, smooth muscle of human aorta and small coronary resistance vessels) was “observed in all regions of human and rat myocardium”; in assay [8] (rat myocardium, rat aorta smooth muscle), “observed in all regions of human and rat myocardium”. In addition, the “Hill slopes (in words)” value in assay [6] and in assay [7] (human right atria) was “close to unity” in each case. Also, the BMAX in [6] (mean ± SEM, n = 6) was determined as 11 ± 2 fmol/mg. Besides, the “BMAX (receptor density)” value in assay [7] (control human right atria) is 8±5 fmol mg^−1 protein and 8.0±4.8 fmol mg^−1 protein; in assay [7] (setting [12]), 10.2±3.4 fmol mg^−1 protein; in [7] (setting [13]), 13.5±7.0 fmol mg^−1 protein. The “nH (Hill coefficient)” value is 0.82±0.10 in assay [7] (control human right atria), 1.00±0.02 in [7] (setting [12]) and 0.94±0.03 in assay [7] (setting [13]). Besides, in [7] (human right atria, control vs DCM vs IHD), the “difference in receptor density or binding affinity” value is on record as “No significant difference in receptor density or binding affinity”.
Turning to endothelin, the “pD2 (inotropic effect)” value in assay [9] is given as 8.9.
Take “urotensin-II: vasoactive peptide and potent inotrope in human heart (ETPDCFWKYCV; ends and bridges not checked; cysteine pairing not given here; UniProt O95399 114-124, looked up)”: in assay [10], the “inotropic activity (in words)” value is recorded as “potent inotrope in human heart”.

B1: Kisspeptin receptor (protein)
chain: MAAEATLGPNVSWWAPSNASGCPGCGVNASDGPGSAPRPLDAWLVPLFFAALMLLGLVGNSLVIFVICRHKHMQTVTNFYIANLAATDVTFLLCCVPFTALLYPLPTWVLGDFMCKFVNYIQQVSVQATCATLTAMSVDRWYVTVFPLRALHRRTPRLALTVSLSIWVGSAAVSAPVLALHRLSPGPHTYCSEAFPSRALERAFALYNLLALYLLPLLATCACYGAMLRHLGRAAVRPAPTDGALQGQLLAQRAGAVRTKVSRLVAAVVLLFAACWGPIQLFLVLQALGPSGAWHPRSYAAYALKIWAHCMSYSNSALNPLLYAFLGSHFRQAFCRVCPCGPQRQRRPHASAHSDRAAPHSVPHSRAAHPVRVRTPEPGNPVRRSPSVQDEHTAPL
The term Kd denotes the concentration at which binding is half-saturated. The low end stands for tighter binding, the high end for weaker binding. B1 yielded a Kd in [11] of 0.44 nM.
